Patent US20150253335

What was measured:
[1] = tested on: coumarin-PPant labeled FITC-ybbR conjugate
[2] = tested on: crypto-A. orientalis CepK labeled with coumarin-PPant
[3] = tested on: crypto-A. parasiticus PksA carrier protein labeled with coumarin-PPant
[4] = tested on: crypto-E. coli AcpP (type II FAS acyl carrier protein labeled with coumarin-PPant)
[5] = tested on: crypto-G. fujikuroi Pks4 carrier protein labeled with coumarin-PPant
[6] = tested on: crypto-L. majuscula JamC labeled with coumarin-PPant
[7] = tested on: crypto-L. majuscula JamF labeled with coumarin-PPant
[8] = tested on: crypto-M. tuberculosis AcpM (Type II) labeled with coumarin-PPant
[9] = tested on: crypto-MBP-PaAcpP (MBP fusion of P. aeruginosa AcpP labeled with coumarin-PPant)
[10] = tested on: crypto-P. agglomerans AdmA labeled with coumarin-PPant
[11] = tested on: crypto-P. agglomerans AdmI labeled with coumarin-PPant
[12] = tested on: crypto-P. falciparum apicoplast ACP (Type II) labeled with coumarin-PPant
[13] = tested on: crypto-P. fluorescens PltL labeled with coumarin-PPant
[14] = tested on: crypto-P. syringae SyrB1 labeled with coumarin-PPant
[15] = tested on: crypto-S. coelicolor ActACP labeled with coumarin-PPant
[16] = tested on: crypto-V. cholerae VibB labeled with coumarin-PPant
[17] = tested on: crypto-ybbR free peptide (coumarin-PPant labeled 11 amino acid ybbR)
[18] = tested on: crypto-ybbR-eGFP fusion with N-terminal 6xHis and C-terminal GFP (coumarin-PPant labeled)
[19] = tested on: crypto-ybbR-eGFP fusion with N-terminal GFP and C-terminal 6xHis (coumarin-PPant labeled)
[20] = tested on: holo-SoAcpP (S. oneidensis type II FAS AcpP)
[21] = tested on: crypto-FITC-ybbR (rhodamine WT PPant-labeled FITC-ybbR)
[22] = tested on: crypto-GFP-ACP (rhodamine-PPT labeled fusion of E. coli ACP with GFP)
[23] = tested on: crypto-Lux-ACP (rhodamine-PPT labeled fusion of bacterial luciferase with E. coli ACP)
[24] = tested on: crypto-MBP-PaACP (rhodamine-PPT labeled MBP fusion of P. aeruginosa ACP)

Substance	AcpH activity with modified ybbR peptide [1]	AcpH qualitative CP activity [2]	AcpH qualitative CP activity [3]	AcpH qualitative CP activity [4]	AcpH qualitative CP activity [5]	AcpH qualitative CP activity [6]	AcpH qualitative CP activity [7]	AcpH qualitative CP activity [8]	AcpH qualitative CP activity [9]	AcpH qualitative CP activity [10]	AcpH qualitative CP activity [11]	AcpH qualitative CP activity [12]	AcpH qualitative CP activity [13]	AcpH qualitative CP activity [14]	AcpH qualitative CP activity [15]	AcpH qualitative CP activity [16]	AcpH activity with modified ybbR peptide [17]	AcpH activity with modified ybbR peptide [18]	AcpH activity with modified ybbR peptide [19]	AcpH qualitative CP activity [20]	other results
annotated hypothetical AcpH homolog from Shewanella oneidensis MR-1	no	no	no	no	no	no	no	no	no	no	no	no	no	no	no	no	no	no	no	no	Vmax (holo-E. coli AcpP): NC†
acyl carrier protein hydrolase (AcpH) from Pseudomonas aeruginosa PAO1	no	no	YES	YES	no	YES	no	YES	YES	no	no	YES	YES	no	no	no	no	no	no	YES^†	Km [21]: 177 µM; Vmax [21]: 0.008 min⁻¹; kcat [21]: 0.000133 s⁻¹; kcat/KM [21]: 0.783 M⁻¹ s⁻¹; removal of rhodamine-PPT from ACP fusion protein [22]: AcpH removed rhodamine-PPT from ACP attached to three different fusion partners ... a C-terminal green fluorescent protein (GFP); removal of rhodamine-PPT from ACP fusion protein [23]: AcpH removed rhodamine-PPT from ACP attached to three different fusion partners ... an N-terminal bacterial luciferase fusion (Lux-ACP); removal of rhodamine-PPT from ACP fusion protein [24]: AcpH removed rhodamine-PPT from ACP attached to three different fusion partners, an N-terminal maltose binding protein (MBP); AcpH activity with NRPS-type peptidyl carrier proteins [13]: The observed partial activity resulted from PaAcpH with PltL; Km (holo-E. coli AcpP): 12 µM; Vmax (holo-E. coli AcpP): 0.59 min⁻¹; kcat (holo-E. coli AcpP): 0.00983 s⁻¹; kcat/KM (holo-E. coli AcpP): 817 M⁻¹ s⁻¹
acyl carrier protein hydrolase (AcpH) from Cyanothece PCC 7822	YES	no	YES	YES	no	YES	no	YES	YES	no	no	YES	no	no	no	no	YES	YES	YES	YES^†	Km [21]: 21 µM; Vmax [21]: 0.004 min⁻¹; kcat [21]: 6.67e-05 s⁻¹; kcat/KM [21]: 3.33 M⁻¹ s⁻¹; Km (holo-E. coli AcpP): 58 µM; Vmax (holo-E. coli AcpP): 1.1 min⁻¹; kcat (holo-E. coli AcpP): 3.52 s⁻¹; kcat/KM (holo-E. coli AcpP): 60000 M⁻¹ s⁻¹
acyl carrier protein hydrolase (AcpH) from Pseudomonas fluorescens NCIMB 10586	YES	no	YES	YES	YES	YES	no	YES	YES	no	YES	YES	no	no	YES	no	YES	YES	YES	YES^†	Km [21]: 48 µM; Vmax [21]: 0.17 min⁻¹; kcat [21]: 0.00283 s⁻¹; kcat/KM [21]: 50 M⁻¹ s⁻¹
